Results published in PMC2966067.

Target: GST-Pin1 (UniProt Q13526)
Assay: pull-down

Row | percent of wild-type binding (densitometry) | percent reduction of binding against wild type (densitometry) | Substance
1 | 10% | – | FLAG-MEF2C S98A/S110A/S240A/S388A (natural protein)
2 | – | 70% | FLAG-MEF2C S98/110A (natural protein)
